# Test results from article PMC9367177.
# Read-outs that look alike come from different tables or passages of the source.
# Tests used:
# [1] = biological target: SARS-CoV-2 RBD (Wuhan-1) (SARS-CoV-2, Wuhan-1) (UniProt P0DTC2); experiment: SPR
# [2] = biological target: SARS-CoV-2 RBD (Wuhan-1) (SARS-CoV-2, Wuhan-1) (UniProt P0DTC2); experiment: SPR; remark: listed apart in the source
substance,measurement,setting,value
CC12.1 (antibody),Kd,[1],5.92 nM
same,koff,[1],0.00412 s⁻¹
same,kon,[1],695000 M⁻¹ s⁻¹
same,kon,[2],696000 M⁻¹ s⁻¹
